{"source": "patent US20070232520A1", "about": "(YEDA RESEARCH AND DEVELOPMENT, published 2007)", "binders": {"B1": {"name": "full-length intracellular domain of the p55-TNF-R (p55IC) (receptor)", "chain": "RYQRWKSKLYSIVCGKSTPEKEGELEGTTTKPLAPNPSFSPTPGFTPTLGFSPVPSSTFTSSSTYTPGDCPNFAAPRREVAPPYQGADPILATALASDPIPNPLQKWEDSAHKPQSLDTDDPATLYAVVENVPPLRWKEFVRRLGLSDHEIDRLELQNGRCLREAQYSMLATWRRRTPRREATLELLGRVLRDMDLLGCLEDIEEALCGPAALPPAPSLLR", "notes": "the GAL4 part is not written as a piece; also called pGBT9-IC55; IC55"}, "B2": {"name": "55.3 (protein fragment 55.3 of the p55IC, residues 277-426) (receptor)", "chain": "NFAAPRREVAPPYQGADPILATALASDPIPNPLQKWEDSAHKPQSLDTDDPATLYAVVENVPPLRWKEFVRRLGLSDHEIDRLELQNGRCLREAQYSMLATWRRRTPRREATLELLGRVLRDMDLLGCLEDIEEALCGPAALPPAPSLLR"}, "B3": {"name": "C terminally truncated p55-IC (construct 206-308) (receptor)", "chain": "RYQRWKSKLYSIVCGKSTPEKEGELEGTTTKPLAPNPSFSPTPGFTPTLGFSPVPSSTFTSSSTYTPGDCPNFAAPRREVAPPYQGADPILATALASDPIPNP", "notes": "GAL4 part not written"}, "B4": {"name": "truncated p55-IC from which the death domain had been deleted (construct 206-328) (receptor)", "chain": "RYQRWKSKLYSIVCGKSTPEKEGELEGTTTKPLAPNPSFSPTPGFTPTLGFSPVPSSTFTSSSTYTPGDCPNFAAPRREVAPPYQGADPILATALASDPIPNPLQKWEDSAHKPQSLDTDDPA", "notes": "GAL4 part not written"}, "B5": {"name": "protein encoded by the 230 clone (other)", "chain": "GPIREAGLAGWLALGCSGPPAEAAGGAGEPWPQHSGKGQLAGRNAWVKKRKAPRENSPGVRSCRASGRASRPHGDPFLLTLPRARHPVTLNVTIQVSLKQRNVRFNTPFRRGEN", "notes": "114 amino acid residues; HeLa cDNA clone in pGAD-GH; GAL4 part not written"}, "B6": {"name": "mouse Fas/APO1 intracellular domain (FAS-IC, residues 166-306) (receptor, UniProt P25446 187-327, looked up)", "chain": "RKYRKRKCWKRRQDDPESRTSSRETIPMNASNLSLSKYIPRIAEDMTIQEAKKFARENNIKEGKIDEIMHDSIQDTAEQKVQLLLCWYQSHGKSDAYQDLIKGLKKAECRRTLDKFQDMVQKDLGKSTPDTGNENEGQCLE", "notes": "range 166-306; GAL4 hybrid constructs; also called murine FAS-IC; mouse FAS-IC"}, "B7": {"name": "55.1 (protein fragment 55.1 of the p55IC, residues 328-426, the death domain) (receptor)", "chain": "ATLYAVVENVPPLRWKEFVRRLGLSDHEIDRLELQNGRCLREAQYSMLATWRRRTPRREATLELLGRVLRDMDLLGCLEDIEEALCGPAALPPAPSLLR", "notes": "also called death domain of human p55-R"}, "B8": {"name": "E19 (p75IC-binding protein encoded by clone E19) (other)", "chain": "EAAGRERERTLEYAEAHAFKSPSKENKKKDKDMLEDKFKSNNLEREQEQLDRIVKESGGKLTRRLVNSQCEFERRKPDGTTTLGLLHPVDPIVGEPGYCPVRLGMTTGRLQSGVNTLQGFKEDKRNKVTPVLYLELWAPTVLYAPHYDSTFANYQQGLI", "notes": "HeLa cDNA clone in pGAD-GH; GAL4 part not written"}, "B9": {"name": "E3 (p75IC-binding protein encoded by clone E3) (other)", "chain": "TFKIRMEPDETVKVLKEKIEAEKGRDAFPVAGQKLIYAGKILSDDVPIRDYRIDEKNFVVVMVTKTKAGQGTSAPPEASPTAAPESSTSFPPAPTSGMSHPPPAAREDKSPSEESTPTPEQEPCLZ", "notes": "GAL4 part not written; for coprecipitation expressed in HeLa cells from pUHD10-3"}, "B10": {"name": "p55-IC construct from which both the death domain and a membrane proximal part were deleted (construct 243-328) (receptor)", "chain": "SFSPTPGFTPTLGFSPVPSSTFTSSSTYTPGDCPNFAAPRREVAPPYQGADPILATALASDPIPNPLQKWEDSAHKPQSLDTDDPA", "notes": "GAL4 part not written"}}, "key": {"[1]": {"target": "T1, 55.11 protein, partial (residues 309-900, as originally isolated), GAL4 activation-domain hybrid (human, UniProt Q13200 318-899)", "T1 sequence (Q13200 other isoform, or with tags, fused parts or gaps)": "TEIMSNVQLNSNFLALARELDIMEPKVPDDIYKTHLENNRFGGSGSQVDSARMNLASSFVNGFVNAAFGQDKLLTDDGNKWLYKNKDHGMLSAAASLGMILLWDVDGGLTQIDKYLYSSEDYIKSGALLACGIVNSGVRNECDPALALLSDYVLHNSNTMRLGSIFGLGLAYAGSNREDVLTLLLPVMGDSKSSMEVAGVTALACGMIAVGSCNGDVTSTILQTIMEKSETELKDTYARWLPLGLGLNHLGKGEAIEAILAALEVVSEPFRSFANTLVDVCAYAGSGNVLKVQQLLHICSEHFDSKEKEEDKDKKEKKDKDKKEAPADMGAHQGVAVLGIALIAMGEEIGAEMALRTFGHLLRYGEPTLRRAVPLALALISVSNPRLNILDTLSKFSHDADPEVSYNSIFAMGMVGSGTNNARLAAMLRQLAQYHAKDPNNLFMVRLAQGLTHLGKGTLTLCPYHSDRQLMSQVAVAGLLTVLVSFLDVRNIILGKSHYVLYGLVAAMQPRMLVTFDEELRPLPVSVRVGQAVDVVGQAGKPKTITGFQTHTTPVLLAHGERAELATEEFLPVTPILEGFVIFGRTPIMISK", "test": "yeast two-hybrid, colony colour (lacZ/X-gal)"}, "[2]": {"target": "T2, 55.11 protein, partial (residues 309-900), VP16 activation-domain hybrid (human, UniProt Q13200 318-899)", "T2 construct": "the VP16 part is not written; also called VP16AD", "test": "yeast two-hybrid beta-galactosidase filter assay (SFY526), FIG. 13"}, "[3]": {"target": "T3, 55.11 construct 309-680 (C-terminal truncation) (human, UniProt Q13200 318-689)", "T3 construct": "GAL4 part not written", "T3 sequence (Q13200 318-689)": "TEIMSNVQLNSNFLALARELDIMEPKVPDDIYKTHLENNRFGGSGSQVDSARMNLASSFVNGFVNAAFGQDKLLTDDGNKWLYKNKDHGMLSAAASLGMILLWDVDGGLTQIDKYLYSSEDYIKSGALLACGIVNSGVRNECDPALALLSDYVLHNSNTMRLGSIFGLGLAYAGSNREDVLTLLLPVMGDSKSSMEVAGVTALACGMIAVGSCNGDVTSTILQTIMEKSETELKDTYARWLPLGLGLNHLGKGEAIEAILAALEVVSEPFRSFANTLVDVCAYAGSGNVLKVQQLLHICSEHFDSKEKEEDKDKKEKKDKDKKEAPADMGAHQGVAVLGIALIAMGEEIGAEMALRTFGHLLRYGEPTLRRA", "test": "yeast two-hybrid beta-galactosidase filter assay (SFY526), FIG. 13"}, "[4]": {"target": "T4, 55.11 construct 457-900 (N-terminal truncation) (human, UniProt Q13200 466-899)", "T4 construct": "GAL4 part not written", "T4 sequence (Q13200 other isoform, or with tags, fused parts or gaps)": "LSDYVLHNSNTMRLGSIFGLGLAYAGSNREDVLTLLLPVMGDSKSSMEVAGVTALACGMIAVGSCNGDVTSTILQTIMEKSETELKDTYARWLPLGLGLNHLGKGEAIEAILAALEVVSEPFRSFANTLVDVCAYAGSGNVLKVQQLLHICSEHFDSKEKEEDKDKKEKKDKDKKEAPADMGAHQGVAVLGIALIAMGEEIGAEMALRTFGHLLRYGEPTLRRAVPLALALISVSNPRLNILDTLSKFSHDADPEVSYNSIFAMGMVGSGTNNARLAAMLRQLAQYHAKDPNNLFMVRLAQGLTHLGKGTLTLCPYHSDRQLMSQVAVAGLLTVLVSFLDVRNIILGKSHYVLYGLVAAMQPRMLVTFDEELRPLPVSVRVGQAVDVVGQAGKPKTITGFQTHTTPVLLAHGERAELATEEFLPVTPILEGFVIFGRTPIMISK", "test": "yeast two-hybrid beta-galactosidase filter assay (SFY526), FIG. 13"}, "[5]": {"target": "B1", "test": "yeast two-hybrid (SFY526), liquid beta-galactosidase assay"}, "[6]": {"target": "T5, lamin (irrelevant protein)", "T5 construct": "Two-hybrid control bait; also called pACT-Lamin", "test": "yeast two-hybrid (SFY526), liquid beta-galactosidase assay"}, "[7]": {"target": "T6, pGBT9 (vector alone) (UniProt P04386 1-147)", "T6 construct": "Negative control bait; also called empty bait vector; empty Gal4 (pGBT9) vector", "T6 sequence (P04386 1-147 limits assumed)": "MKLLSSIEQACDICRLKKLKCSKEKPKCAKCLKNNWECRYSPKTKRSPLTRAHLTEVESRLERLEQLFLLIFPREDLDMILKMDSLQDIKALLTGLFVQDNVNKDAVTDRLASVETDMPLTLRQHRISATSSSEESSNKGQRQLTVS", "test": "yeast two-hybrid (SFY526), liquid beta-galactosidase assay"}, "[8]": {"target": "T1, 55.11 protein, partial (residues …)", "test": "yeast two-hybrid beta-galactosidase filter assay (SFY526), FIG. 13"}, "[9]": {"target": "B1", "test": "yeast two-hybrid (SFY526), various baits"}, "[10]": {"target": "the molecule itself", "test": "yeast two-hybrid beta-galactosidase test (FIG. 14)"}, "[11]": {"target": "T6, pGBT9 (vector alone)", "test": "yeast two-hybrid, colony colour (lacZ/X-gal)"}}}
{"binder": "B1", "values": [{"measurement": "binding result", "setting": "[1]", "result": "binds"}, {"measurement": "binding result", "setting": "[2]", "result": "binds"}, {"measurement": "binding result", "setting": "[3]", "result": "no binding (tested: no development of color within 24 h)"}, {"measurement": "binding result", "setting": "[4]", "result": "no binding (tested: no development of color within 24 h)"}]}
{"binder": "B2", "values": [{"measurement": "Lac Z Activity in Liquid Culture Assay", "setting": "[5]", "result": 0.04}, {"measurement": "Lac Z Activity in Liquid Culture Assay", "setting": "[6]", "result": 0}, {"measurement": "Lac Z Activity in Liquid Culture Assay", "setting": "[7]", "result": 0}]}
{"binder": "B3", "values": [{"measurement": "binding result", "setting": "[8]", "result": "binds"}]}
{"binder": "B4", "values": [{"measurement": "binding result", "setting": "[8]", "result": "binds"}]}
{"binder": "B5", "values": [{"measurement": "binding result", "setting": "[9]", "result": "no binding"}]}
{"binder": "B6", "values": [{"measurement": "binding result", "setting": "[10]", "result": "binds"}]}
{"binder": "B7", "values": [{"measurement": "binding result", "setting": "[11]", "result": "no binding"}, {"measurement": "Lac Z Activity in Liquid Culture Assay", "setting": "[5]", "result": 0.65}, {"measurement": "Lac Z Activity in Liquid Culture Assay", "setting": "[6]", "result": 0}, {"measurement": "Lac Z Activity in Liquid Culture Assay", "setting": "[7]", "result": 0}]}
{"binder": "B8", "values": [{"measurement": "binding result", "setting": "[9]", "result": "no binding"}]}
{"binder": "B9", "values": [{"measurement": "binding result", "setting": "[9]", "result": "no binding"}]}
{"binder": "B10", "values": [{"measurement": "binding result", "setting": "[8]", "result": "binds"}]}
